# System: Compound E7 (CTP-Cas1-FINA)
substance,measurement,value
caspase-1,HPLC analysis after treatment with caspase-1 (cleavage),"the compound is cleaved into two moieties, that is, finasteride and the protein transduction domain"

# Source: patent US20200352839
